Reference: publication PMC12775124, “CUL4A-DDB1-DCAF10 is an N-recognin for N-terminally acetylated Src kinases” (Nature Communications, 2026)
Entries after “also recorded” stand apart in the source; their conditions may differ.

Tests used:
[1] = tested on: DLD-1 Lyn KO Flp-In T-REx cells; test: Direct ubiquitin blot of Lyn-GFP immunoprecipitates; type: cell-based, human; settings: anti-GFP IP, anti-Ub blot, n = 3
Procedure: Fig. 6 N-terminal glycine mutation abolishes DCAF10-dependent stability and ubiquitination. a DLD-1 Flp-In T-REx cells and Lyn KO cells expressing Lyn^WT-GFP, Lyn^G2A-GFP, or Lyn^G2P-GFP were induced for 24 h with 100 ng/mL doxycycline. Cells were treated with NMT1/2 siRNA, DCAF10 siRNA, or both (or left untreated) for 72 h. Representative WBs are shown. Filled circles represent siRNA treatment, empty circles untreated. b WB quantifications of Lyn levels normalized to vinculin. Purple: untreated with NMT1/2 siRNA; blue: treated with NMT1/2 siRNA. Mean ± s.d. with individual data points are shown (n = 3 independent biological replicates). c Schematic of ubiquitination experiments. Created in BioRender. […] Lysates have been treated with NMT1/2 RNAi for 72 h. i Quantification of in vitro ubiquitination assays. Mean ± s.d. with individual data points are shown (n = 3 independent ubiquitination assays). Volcano plots of Lyn-GFP^WT binding partners: j NMT1/2 siRNA ± doxycycline (Dox); k Control ± doxycycline; l NMT1/2 siRNA vs. control both with doxycycline. The −log10 adjusted p-value (two-sided Student’s t test with permutation-based multiple-testing correction; y-axis) is plotted against the log2 fold change (x-axis). […]
We next assessed the role of the Lyn Nt-residue for ubiquitination by performing two complementary experimental set-ups (Fig. 6c). […]

[2] = tested on: DLD-1 Flp-In T-REx and Lyn KO cells; test: Level of Lyn / Lyn-GFP variants after NMT1/2 and DCAF10 siRNA, Western blot; type: cell-based, human; settings: DLD-1, 72 h siRNA
Excerpt: To further investigate the role of the Nt-amino acid and its modification in DCAF10 recognition and DCAF10-dependent ubiquitination, we used the CRISPR/Cas9 technique to knock out Lyn in DLD-1 cell lines with T-REx Flp-In background (DLD-1 Lyn KO Flp-In T-REx) (Supplementary Fig. 7a–c). We then integrated Lyn^WT-GFP and two Nt-mutants (Lyn^G2A-GFP and Lyn^G2P-GFP) under a doxycycline-inducible promoter into the Flp-In cassette. Alanine (G2A) is expected to be efficiently acetylated by NatA, generating an Nt-acetylated Lyn mutant. Conversely, the proline (G2P) mutant, is expected not to be acetylated and may retain a free N-terminus[3],[36],[37]. Doxycycline-induced expression of Lyn^WT-GFP, Lyn^G2A-GFP, and Lyn^G2P-GFP was confirmed by Western blot, MS, and fluorescence microscopy (Supplementary Figs. 7d, e; 8a and Supplementary Data 6). […]
Fig. 6 N-terminal glycine mutation abolishes DCAF10-dependent stability and ubiquitination. a DLD-1 Flp-In T-REx cells and Lyn KO cells expressing Lyn^WT-GFP, Lyn^G2A-GFP, or Lyn^G2P-GFP were induced for 24 h with 100 ng/mL doxycycline. […] Filled circles represent siRNA treatment, empty circles untreated. b WB quantifications of Lyn levels normalized to vinculin. […] Lysates have been treated with NMT1/2 RNAi for 72 h. i Quantification of in vitro ubiquitination assays. […]

B1: Lyn^G2A-GFP: Nt-mutant (G2A) Lyn-GFP (protein, UniProt P07948 2-512, looked up, variant G2A)
Tyrosine-protein kinase Lyn: ACIKSKGKDSLSDDGVDLKTQPVRNTERTIYVRDPTSNKQQRPVPESQLLPGQRFQTKDPEEQGDIVVALYPYDGIHPDDLSFKKGEKMKVLEEHGEWWKAKSLLTKKEGFIPSNYVAKLNTLETEEWFFKDITRKDAERQLLAPGNSAGAFLIRESETLKGSFSLSVRDFDPVHGDVIKHYKIRSLDNGGYYISPRITFPCISDMIKHYQKQADGLCRRLEKACISPKPQKPWDKDAWEIPRESIKLVKRLGAGQFGEVWMGYYNNSTKVAVKTLKPGTMSVQAFLEEANLMKTLQHDKLVRLYAVVTREEPIYIITEYMAKGSLLDFLKSDEGGKVLLPKLIDFSAQIAEGMAYIERKNYIHRDLRAANVLVSESLMCKIADFGLARVIEDNEYTAREGAKFPIKWTAPEAINFGCFTIKSDVWSFGILLYEIVTYGKIPYPGRTNADVMTALSQGYRMPRVENCPDELYDIMKMCWKEKAEERPTFDYLQSVLDDFYTATEGQYQQQP
modifications: GFP fusion
Ubiquitination in cells (in words) [1]: no detectable ubiquitination
Dependency on NMT1/2 and DCAF10 (in words) [2]: did not show such dependency; also recorded: slight increase after DCAF10 depletion, independently of NMT1/2

B2: Lyn^G2P-GFP: Nt-mutant (G2P) Lyn-GFP (protein, UniProt P07948 2-512, looked up, variant G2P)
Tyrosine-protein kinase Lyn: PCIKSKGKDSLSDDGVDLKTQPVRNTERTIYVRDPTSNKQQRPVPESQLLPGQRFQTKDPEEQGDIVVALYPYDGIHPDDLSFKKGEKMKVLEEHGEWWKAKSLLTKKEGFIPSNYVAKLNTLETEEWFFKDITRKDAERQLLAPGNSAGAFLIRESETLKGSFSLSVRDFDPVHGDVIKHYKIRSLDNGGYYISPRITFPCISDMIKHYQKQADGLCRRLEKACISPKPQKPWDKDAWEIPRESIKLVKRLGAGQFGEVWMGYYNNSTKVAVKTLKPGTMSVQAFLEEANLMKTLQHDKLVRLYAVVTREEPIYIITEYMAKGSLLDFLKSDEGGKVLLPKLIDFSAQIAEGMAYIERKNYIHRDLRAANVLVSESLMCKIADFGLARVIEDNEYTAREGAKFPIKWTAPEAINFGCFTIKSDVWSFGILLYEIVTYGKIPYPGRTNADVMTALSQGYRMPRVENCPDELYDIMKMCWKEKAEERPTFDYLQSVLDDFYTATEGQYQQQP
modifications: C-terminal GFP fusion
Ubiquitination in cells (in words) [1]: no detectable ubiquitination
Dependency on NMT1/2 and DCAF10 (in words) [2]: did not show such dependency
